Test results: patent US20220047716A1 (SUTRO BIOPHARMA, published 2022)

Experiments:
Experiment in all cases: cell-based or functional assay
[1] = molecular target: T1, human folate receptor alpha (hFOLR1) on cells (human, UniProt P15328 25-234)
[2] = molecular target: human folate receptor beta (hFolRβ) (human, UniProt P14207 17-230)
[3] = molecular target: human folate receptor alpha (hFolRα) on cells (human, UniProt P15328 25-234)
[4] = molecular target: Human folate receptor alpha (hFOLR1) (human, UniProt P15328 25-234)
[5] = molecular target: T1, human folate receptor alpha (hFOLR1) on …; remark: listed apart in the source

Chain of Human folate receptor alpha (hFOLR1) (P15328 25-234 limits assumed): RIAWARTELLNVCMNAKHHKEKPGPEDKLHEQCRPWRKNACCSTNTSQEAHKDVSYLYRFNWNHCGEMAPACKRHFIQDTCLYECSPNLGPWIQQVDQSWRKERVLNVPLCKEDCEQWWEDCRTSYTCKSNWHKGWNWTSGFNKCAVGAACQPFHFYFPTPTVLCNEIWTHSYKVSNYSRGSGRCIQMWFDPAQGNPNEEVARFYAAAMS
T1 sequence (P15328 25-234 limits assumed): as above
Chain of human folate receptor beta (hFolRβ) (P14207 17-230): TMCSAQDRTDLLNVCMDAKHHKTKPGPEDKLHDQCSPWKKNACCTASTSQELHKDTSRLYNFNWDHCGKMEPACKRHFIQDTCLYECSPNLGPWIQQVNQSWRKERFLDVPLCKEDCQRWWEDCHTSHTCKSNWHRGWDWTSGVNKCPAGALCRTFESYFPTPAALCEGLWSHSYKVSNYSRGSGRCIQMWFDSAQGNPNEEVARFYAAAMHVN
Chain of human folate receptor alpha (hFolRα) on cells (P15328 25-234 limits assumed): as the sequence (P15328 25-234 limits assumed) above

| Binder | Cell Killing (Igrov1) EC50 [4] [nM] | Cell Killing (Igrov1) Span [4] [%] | other results |
| --- | --- | --- | --- |
| SRP2060-A06 (antibody, V domains shown) VH: EVQLLESGGGLVQPGGSLRLSCAFSGFSLSTFGMGVGWVRQAPGKGLEWVGHIWWDDDKYYYPALKGRFTISKDNSKNTVYLQMNSLRAEDTAVYYCGRNHFPHYYGSSHWYFDVWGQGTTVTVSS VL: DIQMTQSPSTLSASVGDRVTITCKASQDINSYLSWYQQKPGKAPKLLIYRANRLVDGVPSRFSGSGSGTEFTLTISSLQPDDFATYYCLQYDEFPYTFGGGTKVEIK | – | – | Igrov 2° Antibody Cell Killing, Nb-SC239, EC50 [1]: 0.013 nM; Igrov 2° Antibody Cell Killing, Nb-SC239, span [1]: 66% |
| ADC Molecule 4 (1848-H01 FolRα antibody, Y180/F404, Conjugate P) (antibody, V domains shown, non-natural amino acids at HC-Y180 and HC-F404, each conjugated to the cleavable hemiasterlin linker-drug (Conjugate P); both sites lie in the constant region, outside the VH entry) VH: EVQLVESGGGLVQPGGSLRLSCAASGFNIRTQSIHWVRQAPGKGLEWIGDIFPIDGITDYADSVKGRFTISADTSKNTAYLQMNSLRAEDTAVYYCARGSWSWPSGMDYYLDYWGQGTLVTVSS VL: not shown | – | – | cytotoxic activity on 293T cells expressing FolRβ, EC50 [2]: ~100 nM; cytotoxic activity on 293T cells expressing FolRα, EC50 [3]: < 10 nM |
| ADC Molecule 23 (antibody 1848-H01 V262E, Y180/F404, Conjugate P) (antibody, V domains shown, non-natural amino acid (pAMF) at heavy chain constant sites HC-Y180 and HC-F404 (EU numbering), each conjugated to cleavable hemiasterlin linker-drug (Conjugate P); DAR 3.57) VH: EVQLVESGGGLVQPGGSLRLSCAASGFNIRTQSIHWVRQAPGKGLEWIGDIFPIDGITDYADSVKGRFTISADTSKNTAYLQMNSLRAEDTAVYYCARGSWSWPSGMDYYLDYWGQGTLVTVSS VL: not shown | 0.088 | 72 | – |
| ADC Molecule 24 (antibody 1848-H01 V262E, Y180/F404, Conjugate Q) (antibody, V domains shown, non-natural amino acid (pAMF) at heavy chain constant sites HC-Y180 and HC-F404 (EU numbering), each conjugated to cleavable (ValAla) hemiasterlin linker-drug (Conjugate Q); DAR 3.76) VH: EVQLVESGGGLVQPGGSLRLSCAASGFNIRTQSIHWVRQAPGKGLEWIGDIFPIDGITDYADSVKGRFTISADTSKNTAYLQMNSLRAEDTAVYYCARGSWSWPSGMDYYLDYWGQGTLVTVSS VL: not shown | 0.19 | 56 | – |
| ADC Molecule 20 (antibody 1848-H01, Y180/F404, Conjugate Q) (antibody, V domains shown, non-natural amino acid (pAMF) at heavy chain constant sites HC-Y180 and HC-F404 (EU numbering), each conjugated to cleavable (ValAla) hemiasterlin linker-drug (Conjugate Q); DAR 3.81) VH: EVQLVESGGGLVQPGGSLRLSCAASGFNIRTQSIHWVRQAPGKGLEWIGDIFPIDGITDYADSVKGRFTISADTSKNTAYLQMNSLRAEDTAVYYCARGSWSWPSGMDYYLDYWGQGTLVTVSS VL: not shown | 0.13 | 70 | – |
| ADC Molecule 4 (antibody, V domains shown, non-natural amino acids at HC-Y180 and HC-F404 (constant region, outside this VH entry) linked to cleavable hemiasterlin linker-drug (Conjugate P), DAR about 3.7-3.8) VH: EVQLVESGGGLVQPGGSLRLSCAASGFNIRTQSIHWVRQAPGKGLEWIGDIFPIDGITDYADSVKGRFTISADTSKNTAYLQMNSLRAEDTAVYYCARGSWSWPSGMDYYLDYWGQGTLVTVSS VL: not shown | – | – | cytotoxic activity on Igrov1 cells in the presence of 0.5 µM un-conjugated 1848-H01, EC50 [5]: > 33 nM; cytotoxic activity on OVCAR3 cells in the presence of 0.5 µM un-conjugated 1848-H01, EC50 [5]: > 33 nM |
| ADC Molecule 4 (antibody 1848-H01, Y180/F404, Conjugate P) (antibody, V domains shown, non-natural amino acid (para-azidomethyl-L-phenylalanine, pAMF) at heavy chain constant sites HC-Y180 and HC-F404 (EU numbering), each conjugated to cleavable hemiasterlin linker-drug (Conjugate P); DAR 3.73) VH: EVQLVESGGGLVQPGGSLRLSCAASGFNIRTQSIHWVRQAPGKGLEWIGDIFPIDGITDYADSVKGRFTISADTSKNTAYLQMNSLRAEDTAVYYCARGSWSWPSGMDYYLDYWGQGTLVTVSS VL: not shown | 0.083 | 80 | – |
